The source of these data is ChEMBL document CHEMBL2074286, “Active transport of the angiotensin-II antagonist losartan and its main metabolite EXP 3174 across MDCK-MDR1 and caco-2 cell monolayers” (Br J Pharmacol, 2000).

For series [1], the system named is CCCCc1nc(Cl)c(CO)n1Cc1ccc(-c2ccccc2-c2nn[nH]n2)cc1. The series can be described thus: TP_TRANSPORTER: transepithelial transport (basal to apical) in Caco-2 cells. The series is classed as functional, cell-based. In general terms: Caco-2 cells form a polarised layer with tight junctions and transporters.
Series [2] shares this test system. Nature of the series: TP_TRANSPORTER: transepithelial transport (basal to apical) in MDR1-expressing MDCK cells. The series is classed as functional, cell-based.

The term Km denotes the concentration of substrate that gives half-maximal velocity. Regarding “ATP-dependent translocase ABCB1 (Homo sapiens)”, the Km in series [1] was 232 µM; in series [2], 403 µM.
